Measurements: patent publication US20190233508A1 (Eli Lilly, published 2019)

Biological target: T1, Recombinant human IL-21 protein (25-155) (human, UniProt Q9HBE4 32-162)
T1 construct: also called recombinant IL-21; IL-21 recombinant protein
Assay: Quanterix Simoa sandwich pairing against recombinant IL-21 reference curve (100 ng/mL-1.0 fg/mL)
Protocol: The antibodies of the present invention, AbM2, Ab2-1, and Ab3-1, are conjugated to beads (Quanterix Cat #101360) at 0.5 mg/mL and are biotinylated according to the manufacturer's protocol at a ratio of 40 to 1 biotin to antibody. Nine combinations of the three antibody pairs are generated and analyzed against a recombinant IL-21 reference curve (100 ng/mL-1.0 fg/mL). The beads are diluted in bead diluent (Quanterix, Cat #100458) and the detection antibodies are diluted in sample/detection buffer (Quanterix, Cat #101359). Two pairs of antibodies are moved into further optimization due to the ability to discriminate IL-21 concentrations in the fg/mL range. The first pair is Ab2-1 and AbM2 which perform well in either orientation. The second pair is Ab3-21 as capture and Ab2-1 as detection.

T1 sequence (Q9HBE4 other isoform, or with tags, fused parts or gaps limits assumed): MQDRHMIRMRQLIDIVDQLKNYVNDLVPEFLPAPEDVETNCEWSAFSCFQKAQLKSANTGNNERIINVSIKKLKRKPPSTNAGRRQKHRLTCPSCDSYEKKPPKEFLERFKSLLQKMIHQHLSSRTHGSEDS

Row | binding result | Binder
1 | binds | anti-human IL-21 antibody AbM2 (antibody, V domains shown, In the Simoa assays it is biotinylated (40:1 biotin to antibody)) VH: QVQLVQSGAEVKKPGASVKVSCKASGYTFTDYWMHWVRQAPGQGLEWMGLIDTSDSYTIYNQKFKGRVTMTRDTSTSTVYMELSSLRSEDTAVYYCARYGPLAMDYWGQGTLVTVSS VL: DIQMTQSPSSLSASVGDRVTITCRASQDISNYLNWYQQKPGKAPKLLIYYTSRLHSGVPSRFSGSGSGTDFTLTISSLQPEDFATYYCQQFHTLRTFGGGTKVEIKR
2 | binds | anti-human IL-21 antibody Ab3-1 (antibody, mouse IgG1, kappa, V domains shown, also called Ab34; Ab3-21) VH: QVQLKQSAAELARPGASVKMSCKASGYFFTLYMMHWAKQRPGQNLEWIGYINPSSGYTEYNQKFKDKTTLTADKSSSTAYMQLSSLTSEDSAIYYCLTDFDYWGQGTSLTVSS VL: not shown
